In patent publication US20220332769A1:

Assays:
Assay in all cases: cell-based or functional assay
[1] = target: SARS CoV-1 spike on pseudotyped lentivirus (CoV-1 PVP) (SARS CoV-1) (UniProt P59594)
[2] = target: Spike protein of live SARS CoV-2 virus (original USA-WA1/2020 strain) (SARS CoV-2) (UniProt P0DTC2)
[3] = target: MERS spike on pseudotyped lentivirus (MERS-PVP) (MERS coronavirus) (UniProt K9N5Q8)

ACE2-VGTM MVP (decoy multivalent particle displaying ACE2 fused with VSVG transmembrane domain)
IC50, CoV-1 pseudovirus microneutralization assay, 293T/ACE2 target cells [1]: 0.13 pM | IC50, CoV-1 pseudovirus neutralization assay, VERO-E6 target cells [1]: 0.44 pM | IC50, live CoV-2 virus microneutralization assay [2]: 57 pM | IC50, live virus PRNT assay, USA-WA1/2020 strain [2]: 0.98 pM | reduction of viral titer, live CoV-2 virus microneutralization assay [2]: > 6 logs

HCΔ-DPP4 MVP (decoy multivalent particle displaying DPP4 extracellular domain fused to measles HCΔ18)
IC50, MERS pseudovirus microneutralization assay, H1650 target cells [3]: 2.96 pM

NA75-DPP4 MVP (DPP4 extracellular domain fused to influenza neuraminidase N-terminus and transmembrane regions) (from UniProt P27487 30-766)
IC50, MERS pseudovirus neutralization assay, H1650 target cells [3]: 0.87 pM

Recombinant DPP4 protein (from UniProt P27487 39-766) (receptor)
IC50, MERS pseudovirus microneutralization assay, H1650 target cells [3]: > 48000 pM
